Data published in patent publication US20040131612A1 (APPLIED MOLECULAR EVOLUTION, published 2004).
Values joined by “and” are separate entries in the source; they are usually repeats but may differ in a detail not shown here. Identical values can stand only once.

How the values were obtained:
human TNF-α [1] = molecular target: T1, human TNF-α (human, UniProt P01375 77-233); assay: calculated from Kd = koff/kon (KinExA data)
T1 construct: It was biotinylated in the filter lift and on-rate ELISA; also called hTNF-α; hTNF
Procedure: Next, binding kinetics of three of the Fab fragments described in Table 4 were determined in a kinetic exclusion assay. Affinity measurements were performed on a KinExA™3000 instrument (Sapidyne Instruments, Inc., Boise, Id.) using Fab fragments (A10K, A9K, and A10P) released from the periplasmic space whose concentration was determined by a quantitative ELISA. Briefly, antigen and antibody fragment were allowed to react in solution and the fraction of unbound reagent was determined by capture and measured on a bead support. Binding kinetics can be determined or calculated from the amount of unbound reagent. For instance, after interaction between TNF-α and a Fab fragment has occurred in solution, binding of the unreacted, free Fab fragment to TNF-α coated beads can be measured on the instrument by detection with a labeled secondary antibody to the Fab fragment (e.g., a goat anti-IgG (heavy and light)). […] After the incubation, the amount of unbound Fab in the equilibrated samples was determined on the KinExA™3000 instrument according to the manufacturer's instructions. Kd values were determined by the instrument software.
To measure kₒₙ, individual Fab fragments at a concentration of 40 pM were mixed with 400 pM of hTNF-α. […] The resulting data was used to calculate the kₒₙ with the instrument software. koff was calculated by using the formula Kd=koff/kₒₙ.

human TNF-α [2] = molecular target: T1, human TNF-α; assay: kinetic exclusion assay (KinExA 3000), Fab in solution with human TNF-α; upper end of the range
Procedure: (§1) Next, binding kinetics of three of the Fab fragments described in Table 4 were determined in a kinetic exclusion assay. Affinity measurements were performed on a KinExA™3000 instrument (Sapidyne Instruments, Inc., Boise, Id.) using Fab fragments (A10K, A9K, and A10P) released from the periplasmic space whose concentration was determined by a quantitative ELISA. Briefly, antigen and antibody fragment were allowed to react in solution and the fraction of unbound reagent was determined by capture and measured on a bead support. Binding kinetics can be determined or calculated from the amount of unbound reagent. For instance, after interaction between TNF-α and a Fab fragment has occurred in solution, binding of the unreacted, free Fab fragment to TNF-α coated beads can be measured on the instrument by detection with a labeled secondary antibody to the Fab fragment (e.g., a goat anti-IgG (heavy and light)). […] A total of 13 tubes were used for each Kd determination. For A10K and A10P, the Fab concentration was 10 pM with the human TNF-α concentration beginning at 160 pM and then serially diluted to 0.078 pM with the final tube containing no human TNF-α. […] After the incubation, the amount of unbound Fab in the equilibrated samples was determined on the KinExA™3000 instrument according to the manufacturer's instructions. Kd values were determined by the instrument software.

human TNF-α [3] = molecular target: T1, human TNF-α; assay: cell-based or functional assay
human TNF-α [4] = molecular target: T1, human TNF-α; assay: kinetic exclusion assay (KinExA 3000), 40 pM Fab mixed with 400 pM hTNF-α, time course
Procedure: To measure kₒₙ, individual Fab fragments at a concentration of 40 pM were mixed with 400 pM of hTNF-α. A series of measurements were taken over a time course. The resulting data was used to calculate the kₒₙ with the instrument software. koff was calculated by using the formula Kd=koff/kₒₙ.

human TNF-α [5] = molecular target: T1, human TNF-α; assay: kinetic exclusion assay (KinExA 3000), Fab in solution with human TNF-α; lower end of the range
Procedure: as §1

T1 sequence (P01375 77-233 limits assumed): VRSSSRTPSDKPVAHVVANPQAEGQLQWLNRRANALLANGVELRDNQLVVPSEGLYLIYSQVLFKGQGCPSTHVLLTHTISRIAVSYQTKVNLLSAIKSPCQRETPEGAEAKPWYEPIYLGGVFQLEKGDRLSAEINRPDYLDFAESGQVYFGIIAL

B1: A10K Fab fragment (Fab, V domains shown)
VH: EVQLVESGGGLVQPGGSLRLSCAASGFKFSNHWMNWVRQAPGKGLEWVGEIRSKSMNSATHYAESVKGRFTISRDDSKNSLYLQMNSLKTEDTAVYYCARNYYGSTYDHWGQGTLVTVSS
VL: EIVLTQSPDFQSVTPKEKVTITCRASQFVGYSIHWYQQKPDQSPKLLIKYASESRSGVPSRFSGSGSGTDFTLTINSLEAEDAATYYCQQSHSWHFTFGQGTKVEIK
notes: Fab released from the E. coli periplasm; Against hu1: light chain S31Y, M55R
koff (human TNF-α [1]): 1.96e-05 s⁻¹ and 3.76e-05 s⁻¹ | Kd (human TNF-α [2]): ≤ 0.0072 nM | L929 cell protection assay (prevention of TNF-α-mediated cell death), EC50 (human TNF-α [3]): ~0.025 nM | L929 cell protection assay, EC50 (human TNF-α [3]): ~0.067 nM | kon (human TNF-α [4]): 3.92e+06 M⁻¹ s⁻¹ and 7.51e+06 M⁻¹ s⁻¹ | Kd (human TNF-α [5]): ≥ 0.0035 nM

B2: A10K IgG (antibody, V domains shown)
VH: B1 VH
VL: B1 VL
L929 cell protection assay, EC50 (human TNF-α [3]): ~0.0027 nM
